# According to US7517652B2, “Methods of diagnosing tumors using the G-protein coupled receptor (GPCR), RAI-3” (Bristol-Myers Squibb Company, priority 2002, dated 2009):
# Tested on: Flag-RAI-3
# Test: Anti-FLAG immunoprecipitation and anti-phosphotyrosine Western blot of A549 cells transiently transfected with Flag-RAI-3
# Format: cell-based, human
# Details: CS-160 1 to 3 hours, EGF 10 nM
# Description: FIGS. 26A and 26B illustrate the results of Western Blot analysis of an A549 cell line (Human Lung Carcinoma CCL-185, American Type Culture Collection, Manassas, Va.) transiently transfected with a FLAG RAI-3 construct (described herein). Media on the cells was changed to serum-free and 48 hours port-transfection the cells were treated with cigarette smoke-bubbled media (i.e., CS-160, the equivalent of 160 cigarettes per 500 ml of cell medium) for the periods of time shown (1 hr., 2 hr., and 3 hr.) and with EGF (10 nM) for 5 minutes. Lysates were immuno-precipitated with 2 μg of anti-FLAG M2 antibody (Catalog # F-3165, Sigma, Saint Louis, Mo.) and 40 μl of Protein A. The Protein A/lysate/antibody mixture was washed, aspirated “dry”, and 60 μl of 2×SDS-PAGE sample buffer was added. After heating at 95° C. for 10 minutes, the samples were loaded onto two 4-20% gradient gels, resolved by SDS-PAGE and transferred to nitrocellulose by standard Western Blotting techniques.
# The A549 cell line (American Type Culture Collection, Manassas, Va.) was plated in 100 mm petri dishes and transfected at about 75% confluency. […]
molecule,measurement,value
"epidermal growth factor (protein, UniProt P01133 23-1207, looked up, Pro-epidermal growth factor) Pro-epidermal growth factor: PQHWSCPEGTLAGNGNSTCVGPAPFLIFSHGNSIFRIDTEGTNYEQLVVDAGVSVIMDFHYNEKRIYWVDLERQLLQRVFLNGSRQERVCNIEKNVSGMAINWINEEVIWSNQQEGIITVTDMKGNNSHILLSALKYPANVAVDPVERFIFWSSEVAGSLYRADLDGVGVKALLETSEKITAVSLDVLDKRLFWIQYNREGSNSLICSCDYDGGSVHISKHPTQHNLFAMSLFGDRIFYSTWKMKTIWIANKHTGKDMVRINLHSSFVPLGELKVVHPLAQPKAEDDTWEPEQKLCKLRKGNCSSTVCGQDLQSHLCMCAEGYALSRDRKYCEDVNECAFWNHGCTLGCKNTPGSYYCTCPVGFVLLPDGKRCHQLVSCPRNVSECSHDCVLTSEGPLCFCPEGSVLERDGKTCSGCSSPDNGGCSQLCVPLSPVSWECDCFPGYDLQLDEKSCAASGPQPFLLFANSQDIRHMHFDGTDYGTLLSQQMGMVYALDHDPVENKIYFAHTALKWIERANMDGSQRERLIEEGVDVPEGLAVDWIGRRFYWTDRGKSLIGRSDLNGKRSKIITKENISQPRGIAVHPMAKRLFWTDTGINPRIESSSLQGLGRLVIASSDLIWPSGITIDFLTDKLYWCDAKQSVIEMANLDGSKRRRLTQNDVGHPFAVAVFEDYVWFSDWAMPSVMRVNKRTGKDRVRLQGSMLKPSSLVVVHPLAKPGADPCLYQNGGCEHICKKRLGTAWCSCREGFMKASDGKTCLALDGHQLLAGGEVDLKNQVTPLDILSKTRVSEDNITESQHMLVAEIMVSDQDDCAPVGCSMYARCISEGEDATCQCLKGFAGDGKLCSDIDECEMGVPVCPPASSKCINTEGGYVCRCSEGYQGDGIHCLDIDECQLGEHSCGENASCTNTEGGYTCMCAGRLSEPGLICPDSTPPPHLREDDHHYSVRNSDSECPLSHDGYCLHDGVCMYIEALDKYACNCVVGYIGERCQYRDLKWWELRHAGHGQQQKVIVVAVCVVVLVMLLLLSLWGAHYYRTQKLLSKNPKNPYEESSRDVRSRRPADTEDGMSSCPQPWFVVIKEHQDLKNGGQPVAGEDGQAADGSMQPTSWRQEPQLCGMGTEQGCWIPVSSDKGSCPQVMERSFHMPSYGTQTLEGGVEKPHSLLSANPLWQQRALDPPHQMELTQ",tyrosine phosphorylation of recombinant Flag-RAI-3 protein,does not appear to cause tyrosine phosphorylation
